Test results: patent US9096835B2, “DNA polymerase” (Medical Research Council, priority 2003, dated 2015)

Assays:
Format in all cases: biochemical
[1] = PCR with dATP replaced by FITC-12-dATP; details: 50 cycle PCR, dATP completely replaced
Description: (§1) A PCR assay was used to screen and rank clones. Briefly, clones were normalized for activity in PCR with matched primers 3, 4 and activity with mismatched primers 1 and 2 (1 μM each) determined at minimal cycle number (15-25 cycles). Extension capability for different mismatches was determined by the same assay using mismatch primers 2 (C•C mismatch), 5 (A•A mismatch), 6 (G•G mismatch), 7 (G•A mismatch) with matched primer 3 or primer 1 (A•G mismatch) with matched primer 4. Incorporation of unnatural substrates in 50 cycle PCR was carried out using standard conditions and 50 μM […] dNTPs (Promega) or 50 μM FITC-12-dATP (Perkin-Elmer), Rhodamine-5-dUTP (Perkin-Elmer) or Biotin-16-dUTP (Roche) with equivalent amounts of the other 3 dNTPs (all 50 μM). Long PCR was carried out using a two-step cycling protocol as described (22) 94° C. for 2 minutes, followed by 20 cycles of (94° C. 15 sec, 68° C. 30 min) using 5 ng of phage λ DNA (New England Biolabs) template and either primers 9, 10, 11 with primer 12 or primer 13 with primers 10, 14.

PCR with Biotin-16-dUTP = details: 50 cycle PCR, complete replacement
Description: as §1

[2] = tested on: template containing a single 5-nitroindole; assay: 5NI replication assay; details: primer extension, 60° C.
Description: Primer 26 was ^32P-labeled and annealed to template primer 27 (containing a single 5-nitroindole) in 1× Taq buffer, 0.1 or 0.5 U of the polymerase was added and reactions incubated at 60° C. for 15 mins, after which 40 μM of each dNTP were added and incubation at 60° C. continued for various times.

four mismatch primers = assay: PCR screen of clones with four mismatch primers; details: 292 base pair product, 50 cycles of PCR
Description: The resultant clones from both CSR and CST were screened and ranked by PCR assay. Briefly, 2 μl of induced cells were added to 20 μl of PCR mix with the relevant 4 mismatch primers. Clones that produced a band were then subjected to further analysis and their activity on single, double and quadruple mismatch primers (single mismatch primers: 5′-CAGGAAACAGCTATGACAAAAATCTAGATAACGAGGGA-3′ (SEQ ID NO: 48) and 5′-GTAAAACGACGGCCAGTACCACCGAACTGCGGGTGACGCCAAGCC 3′ (SEQ ID NO: 49); double mismatch primers: CAGGAAACAGCTATGACTCGACAAAAATCTAGATAACGACC (SEQ ID NO: 50) and GTAAAACGACGGCCAGTTTATTAACCACCGAACTGC (SEQ ID NO: 51); four mismatch primers above.) was investigated. Polymerases that could extend all of these mismatches were found, though many polymerases could do only one of the mismatches and […].
The best first and second round clones were shuffled as described above and subjected to another round of CSR. The same two sets of mismatch primers with four mismatches at their 3′ end were used in the emulsion as two separate sources of selective pressure. This was then dealt with as above and the resultant clones were screened and ranked by PCR assay (as above). Once again, polymerases that could extend all of these mismatches were found. In particular, clones 3B5.

[3] = tested on: primers with an abasic site seven bases from their 3′ end; assay: Abasic site bypass in PCR; details: 176 bp product, 20 cycles of PCR
Description: FIG. 10. A list of polymerases selected to extend four mismatches were assayed for their ability to extend abasic sites in PCR. Primers with an abasic site seven bases from their 3′ end were designed. Such primers will prevent exponential amplification of the target sequence, restricting it to […] amplification, unless the abasic site is bypassed. […] (A) Screen which identified clone A10. (B) A further 4 polymerases that display good abasic site bypass. Lane M: markers, Hae III digest of Φ X174.
A list of polymerases selected to extend four mismatches were assayed for their ability to extend abasic sites in PCR (FIG. 10).

Molecule: wtTaq: Thermus aquaticus (Taq) wild type DNA polymerase [reference compound]
- PCR amplification with FITC-12-dATP [1]: unable to generate any amplification products
- PCR amplification with Biotin-16-dUTP (PCR with Biotin-16-dUTP): unable to generate any amplification products

B1: M4: Taq mutant D58G, R74P, A109T, L245R, R343G, G370D, E520G, N583S, E694K, A743P; SEQ ID NO 2 (protein)
chain: MRGMLPLYEPKGRVLLVDGHHLAYRTFHALKGLTTSRGEPVQAVYGFAKSLLKALKEGGDAVIVVFDAKAPSFPHEAYGGYKAGRAPTPEDFPRQLALIKELVDLLGLTRLEVPGYEADDVLASLAKKAEKEGYEVRILTADKDLYQLLSDRIHVLHPEGYLITPAWLWEKYGLRPDQWADYRALTGDESDNLPGVKGIGEKTARKLLEEWGSLEALLKNLDRLKPAIREKILAHMDDLKLSWDRAKVRTDLPLEVDFAKRREPDRERLRAFLERLEFGSLLHEFGLLESPKALEEAPWPPPEGAFVGFVLSRKEPMWADLLALAAARGGRVHRAPEPYKALGDLKEARGLLAKDLSVLALREGLGLPPDDDPMLLAYLLDPSNTTPEGVARRYGGEWTEEAGERAALSERLFANLWGRLEGEERLLWLYREVERPLSAVLAHMEATGVRLDVAYLRALSLEVAEEIARLEAEVFRLAGHPFNLNSRDQLERVLFDELGLPAIGKTEKTGKRSTSAAVLGALREAHPIVEKILQYRELTKLKSTYIDPLPDLIHPRTGRLHTRFNQTATATGRLSSSDPNLQSIPVRTPLGQRIRRAFIAEEGWLLVALDYSQIELRVLAHLSGDENLIRVFQEGRDIHTETASWMFGVPREAVDPLMRRAAKTINFGVLYGMSAHRLSQELAIPYEEAQAFIKRYFQSFPKVRAWIEKTLEEGRRRGYVETLFGRRRYVPDLEARVKSVREPAERMAFNMPVQGTAADLMKLAMVKLFPRLEEMGARMLLQVHDELVLEAPKERAEAVARLAKEVMEGVYPLAVPLEVEVGIGEDWLSAKE
modifications: Mutant Thermus aquaticus DNA polymerase
- bypass of template strand 5NI [2]: efficiently bypass template strand 5NI

B2: 3D1: third round clone, four mismatch extension; SEQ ID NO: 98 (protein)
chain: MAMLPLFEPKGRVLLVDGHHLAYRTFFALKGPTTSRGEPVQVVYGFAKSLLKALKEDGYKAVFVVFDAKAPSFRHKAYEAYRAGRAPTPEDFPRQLALIKELVDLLGFTRLEVPGYEADDVLATLAKKAEKEGYEVRILTADRGLYQLVSDRVAVLHPEGHLITPEWLWEKYGLRPEQWVDFRALVGDPSDNLPGVKGIGEKTALKLLKEWGSLENLLKNLDRVKPENVREKIKAHLEDLRLSLELSRVRTDLPLEVDLAQRREPDREGLRAFLERLEFGSLFHEFGLLESPKALEEAPWPPPEGAFVGFVLSRKEPMWADLLALAAARGGRVHRAPEPYKALRDLKEARGLLAKDLSVLALREGLGLPPGDDPMLLAYLLDPSNTTPEGVARRYGGEWTEEAGERAALSERLFANLWGRLEGEERLLWLYREVERPLSAVLAHMEATGVRLDVAYLRALSLEVAEEIARLEAEVFRLAGHPFNLNSRDQLEMVLFDELRLPALGKTQKTGKRSTSAAVLEALREAHPIVEKILQYRELTKLKSTYIDPLSDLIHPRTGRLHTRFNQTATATGRLSSSDPNLQNIPVRTPLGQRIRRAFIAEEGWLLVVLDYSQIELRVLAHLSGDENLIRVFQEGRDIHTETASWMFGVPREAVDPLMRRAAKTINFGVLYGMSAHRLSQELAIPYEEAQAFIERYFQSFPKVRAWIEKTLEEGRRRGYVETLFGRRRYVPDLEARVKSVREAAERMAFNMPVQGTAADLMKLAMVKLFPRLGETGARMLLQVHDELVLEAPKERAEAVARLAKEAMEGVYPLAVPLEVEVGIGEDWLSAKG
modifications: Mutant Taq polymerase
- extension of primers containing four mismatches in PCR (four mismatch primers): able to extend primers containing four mismatches
- extension of primers containing four mismatches in PCR (four mismatch primers; listed as D1): can also extend four mismatched primers in PCR
- amplification product in PCR with abasic site primers [3]: produced an amplification product

B3: 3A10: third round clone, abasic site bypass; SEQ ID NO: 86 (protein)
chain: MAMLPLFEPKGRVLLVDGHHLAYRTFFALKGLTTSRGEPVQVVYGFAKSLLKALKEDGYKAVFVVFDAKAPSFRHKAYEAYRAGRAPTPQDFPRQLALIKELVDLLGFTRLEVPGYEADDVLATLAKKAEKEGYEVRILTADRGLYQLVSDRVAVLHPEGHLITPEWLWEKYGLRPEQWVDFRALVGDPSDNLPGVKGIGEKTALKLLKEWGSLENLLKNLDRVKPENVREKIKAHLEDLRLSLELSRVRTDLPLEVDLAQGREPDREGLRAFLERLEFGSLLHEFGLLESPKALEEAPWPPPEGAFVGFVLSRKEPMWADLLALAAARGGRVHQAPEPYKALRDLKEARGLLAKDLSVLALREGLGLPPGDDPMLLAYLLDPSNTTPEGVARRYGGEWTEEAGERAALSERLFANLWGRLEGEERLLWLYREVERPLSAVLAHMETTGVRLDVAYLRALSLEVAEEIARLEAEVFRLAGRPFNLNSRDQLERVLFDELGLPAIGKTEKTGKRSTSAAVLEALREAHPIVEKILQYRELTKLKSTYIDPLPDLIHPRTGRLHTRFNQTATATGRLSSSDPNLQNIPVRTPLGQRIRRAFIAEEGWLLVVLDYSQMELRVLAHLSGDENLIRVFQEGKDIHTQTASWMFGVPPEAVDPLMRRAAKTVNFGVLYGMSAHRLSQELSIPYEEAVAFIERYFQSFPKVRAWIEKTLEEGRRRGYVETLFGRRRYVPDLNARMKSVRGAAERMAFNMPVQGTAADLMKLAMVKLFPRLREMGARMLLQVHDELLLEAPQARAEEVAALAKEAMEKAYPLAVPLEVEVGIGEDWLSAKE
modifications: Mutant Taq polymerase
- extension of primers containing four mismatches in PCR (four mismatch primers): cannot
- amplification product in PCR with abasic site primers [3]: produced an amplification product

B4: M1: Taq mutant G84A, D144G, K314R, E520G, F598L, A608V, E742G; SEQ ID NO: 1 (protein)
chain: MRGMLPLFEPKGRVLLVDGHHLAYRTFHALKGLTTSRGEPVQAVYGFAKSLLKALKEDGDAVIVVFDAKAPSFRHEAYGGYKAARAPTPEDFPRQLALIKELVDLLGLARLEVPGYEADDVLASLAKKAEKEGYEVRILTADKGLYQLLSDRIHVLHPEGYLITPAWLWEKYGLRPDQWADYRALTGDESDNLPGVKGIGEKTARKLLEEWGSLEALLKNLDRLKPAIREKILAHMDDLKLSWDLAKVRTDLPLEVDFAKRREPDRERLRAFLERLEFGSLLHEFGLLESPKALEEAPWPPPEGAFVGFVLSRREPMWADLLALAAAAGGRVHRAPEPYKALRDLKEARGLLAKDLSVLALREGLGLPPGDDPMLLAYLLDPSNTTPEGVARRYGGEWTEEAGERAALSERLFANLWGRLEGEERLLWLYREVERPLSAVLAHMEATGVRLDVAYLRALSLEVAEEIARLEAEVFRLAGHPFNLNSRDQLERVLFDELGLPAIGKTEKTGKRSTSAAVLGALREAHPIVEKILQYRELTKLKSTYIDPLPDLIHPRTGRLHTRFNQTATATGRLSSSDPNLQNIPVRTPLGQRIRRAFIAEEGWLLVVLDYSQIELRVLAHLSGDENLIRVFQEGRDIHTETASWMFGVPREAVDPLMRRAAKTINFGVLYGMSAHRLSQELAIPYEEAQAFIERYFQSFPKVRAWIEKTLEEGRRRGYVETLFGRRRYVPDLEARVKSVRGAAERMAFNMPVQGTAADLMKLAMVKLFPRLEEMGARMLLQVHDELVLEAPKERAEAVARLAKEVMEGVYPLAVPLEVEVGIGEDWLSAKE
modifications: Mutant Thermus aquaticus DNA polymerase
- bypass of template strand 5NI [2]: efficiently bypass template strand 5NI
- size of amplification product fully labelled with FITC-12-dATP [1]: 0.4 kb
- size of amplification products fully labelled with Biotin-16-dUTP (PCR with Biotin-16-dUTP): 2.7 kb
